Test results published in patent US20200040101A1.

Assays:
[1] = biological target: CLDN18.1 expressed on HEK 293 cells (UniProt P56856); assay: FACS, secondary antibody alone on HEK 293 cells expressing CLDN 18.1
[2] = biological target: human Claudin 18.2 (CLDN18.2) expressed on cells (human) (UniProt P56856); assay: FACS, secondary antibody alone on HEK 293 cells expressing CLDN 18.2

MFI [1]: 18 | MFI [2]: 53
Substance: Sec. antibody
